B1: CVN: 11 kDa protein originally isolated from the cyanobacterium Nostoc ellipsosporum, binds high mannose oligosaccharides of gp120 (protein)
chain: LGKFSQTCYNSAIQGSVLTSTCERTNGGYNTSSIDLNSVIENVDGSLKWQPSNFIETCRNTQLAGSSELAAECKTRAQQFVSTKINLDDHIANIDGTLKYEHHHHHH

Key:
[1] = test system: HIV-1 BaL; assay: Viral synergy study, HIV-1 BaL replication in PM-1 cells (gp120 ELISA); assay type: cell-based; conditions: 12p1 16-31 μM
Description: The curves are also shown for the dose response expected if the effects were simply additive.
Viral replication was determined by gp120 ELISA after a seven day incubation.
Dilutions and cells were in RPMI supplemented with 10% fetal calf serum, pen, strep and glutamine. Cells were incubated for 7 days and viral replication determined by gp120 ELISA. Each condition was performed in sextuplet and the mean used to calculate IC50 values. Analysis of combined effects was also carried out using the median effect principle developed by Chou and Talalay^39,40, and using the computer program CalcuSyn (BioSoft).

[2] = molecular target: gp120 of HIV-1 JRFL and HIV-1 89.6; conditions: cited from earlier work
[3] = molecular target: T1, YU2 gp120 / mAb 17b (Human immunodeficiency virus type 1 group M subtype B, UniProt P35961); conditions: from literature; cited from earlier work
[4] = molecular target: T2, YU2 gp120 / mAb F105 (Human immunodeficiency virus type 1 group M subtype B, UniProt P35961); conditions: from literature; cited from earlier work
T2 construct: made in house; host or cells: gp120: Drosophila S2 cells

[5] = test system: SIV/HIV-1 virus SHIV89.6P; conditions: gel formulations applied rectally, male macaques; cited from earlier work
[6] = molecular target: HIV-1YU2 gp120 (Human immunodeficiency virus type 1 group M subtype B, UniProt P35961); conditions: at 300 nM, about 250 RUs gp120 immobilized
Description: Approximately 250 RUs of either YU2 gp120 or the non-specific control antibody 2B6R were immobilized to a CM5 dextran chip by amine coupling. […] Signals from the reference 2B6R flow cell were used to correct for non-specific interactions and bulk effects (FIGS. 4A, B).
All surface plasmon resonance studies were performed on a Biacore 3000 (Biacore Inc., Uppsala, Sweden). CM5 dextran chip was derivatized by amine coupling with 250 RUs of YU2 gp120 or 2B6R (anti-IL5 receptor βchain) IgG as a control surface. […] Surfaces were regenerated with multiple short pulses of 10 mM glycine HCl, pH 1.7.

[7] = molecular target: YU2 gp120 (Human immunodeficiency virus type 1 group M subtype B, UniProt P35961); conditions: read-out: Equilibrium dissociation constant KD for binding to YU2; cited from earlier work
[8] = test system: HIV-1 BaL; conditions: recombinant CVN; cited from earlier work
[9] = molecular target: YU2 gp120 / mAb 2G12 (Human immunodeficiency virus type 1 group M subtype B, UniProt P35961); conditions: ELISA, 50 μg/ml 2G12
Text: Monomeric HIV-1YU2 gp120 was adsorbed onto ELISA plates overnight prior to blocking with 1% BSA.
This antibody recognizes the conformationally-flexible, CD4-unliganded form of gp120^53.

[10] = test system: gp120s from a variety of strains of HIV-1 of diverse clades and tropisms; assay: ELISA binding to gp120 of a variety of clades and tropisms; conditions: 50 nM, 100 ng gp120
Text: Bars represent triplicate determination after the subtraction of non-specific binding to BSA. Error bars indicate one standard deviation.
We therefore tested the ability of the chimera to bind to the gp120s from a variety of strains of HIV-1 of diverse clades and tropisms.

[11] = molecular target: T1, YU2 gp120 / mAb 17b; conditions: ELISA, 2 μg/ml 17b
[12] = test system: SHIV89.6P; conditions: cited from earlier work

Row | Molecule | Inhibitory effect on viral replication alone [1] | Affinity (KD) of interaction with gp120 [2] | Effect on 17b-gp120 interaction [3] | Effect on F105 binding to gp120 [4] | Protection against rectal challenge [5] | Biosensor signal on immobilized YU2 gp120 [6] [RU] | Kd [7] [nM] | Cytotoxic effects in ectocervical explants [8] | Infection of human ectocervical explants [8] | Competition of gp120 binding to 2G12 antibody [9] | Binding to gp120s of diverse strains in ELISA [10] | Effect on interaction between 17b and gp120 [11] | Clinically adverse effects in in vivo assays ([12]; macaques, gel) | CVN treated macaques not infected ([12]; vaginal gel, SHIV89.6P challenge, controls 8 of 8 infected)
1 | RINNIPWSEAMM [12p1] | only small inhibitory effect |  |  |  |  |  |  |  |  |  |  |  |  | 
2 | B1 |  | in the nM KD range | cannot inhibit this interaction | minimal effect | protected against challenge | 95 | 11 | no cytotoxic effects | blocked HIV-1 BaL infection | show the expected competition | behaved equivalently with all strains tested | neither CVN nor L5-S12p1 had any effect | no clinically adverse effects | 15 of 18
